Measurements published in PMC7005868.

Molecular target: CD63-GLucC (CD63 truncated at Val206 fused to the C-terminal fragment of Gaussia luciferase) (UniProt P08962)
Assay: split reporter (BiFC, NanoBiT); Gaussia luciferase protein complementation assay (PCA); GLucN and GLucC fusion plasmids co-transfected 1:1 into HEK293FT; membranes disrupted by two freeze-thaw cycles; luminescence with 10 uM coelenterazine

Sequence of UniProt P08962 (P08962 1-206): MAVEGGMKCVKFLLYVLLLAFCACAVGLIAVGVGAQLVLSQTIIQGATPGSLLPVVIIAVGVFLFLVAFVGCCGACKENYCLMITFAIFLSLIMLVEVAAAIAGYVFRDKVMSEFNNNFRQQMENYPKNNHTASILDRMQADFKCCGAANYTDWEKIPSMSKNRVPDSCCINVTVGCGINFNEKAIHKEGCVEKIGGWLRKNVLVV

loss of the ability to bind CD63 against full-length TIMP-1: 83%
Substance: GLucN-T1ΔC (TIMP-1 truncated after L168) (domain or fragment)
